Measurements as given in patent US20200317816A1 (Novartis, published 2020).

B1: IDT3 anti-NOV1401 Fab (Fab, V domains shown)
VH: QVQLVESGGGLVKPGGSLRLSCAASGFTFQSAAVHWVRQAPGKGLEWVGRIKSKADGGTTDYAAPVKGRFTISRDDSKNTLYLQMNSLKTEDTAVYYCARDSPSISSYSIPYFSGMDVWGQGTLVTVSS
VL: DIQMTQSPSSLSASVGDRVTITCRASQGIRAWLNWYQQKPGKAPKLLIYAASSLQSGVPSRFSGSGSGTDFTLTISSLQPEDFATYYCHQYITHPPTFGQGTKVEIKR
notes: Human Fab; The heavy chain entry is VH-CH1 (Fd); also called antidote
B2: IDT9 anti-NOV1401 Fab (Fab, V domains shown)
VH: QVQLVQSGAEVKKPGASVKVSCKASGYTFTNYYVHWVRQAPGQGLEWMGWINPYNGNTNYAQKFQGRVTMTRDTSISTAYMELSRLRSEDTAVYYCARGASSIRMSYYLDVWGQGTLVTVSS
VL: DIQMTQSPSSLSASVGDRVTITCRASQSISNYLNWYQQKPGKAPKLLIYAASNLQSGVPSRFSGSGSGTDFTLTISSLQPEDFATYYCFQYTHSPATFGQGTKVEIKR
notes: as for B1
B3: IDT7 anti-NOV1401 Fab (Fab, V domains shown)
VH: QVQLVESGGGLVKPGGSLRLSCAASGFTFSSNAMHWVRQAPGKGLEWVGRIKSKTDGGTTDYAAPVKGRFTISRDDSKNTLYLQMNSLKTEDTAVYYCARDHYYYPFAYWGQGTLVTVSS
VL: DIQMTQSPSSLSASVGDRVTITCRASQSIRYNLAWYQQKPGKAPKLLIYAASSLQSGVPSRFSGSGSGTDFTLTISSLQPEDFATYYCHQYIAKPITFGQGTKVEIKR
notes: as for B1
B4: IDT5 anti-NOV1401 Fab (Fab, V domains shown)
VH: QVQLVESGGGLVKPGGSLRLSCAASGFTFSSAAVHWVRQAPGKGLEWVGRIKSKADAGTTDYAAPVKGRFTISRDDSKNTLYLQMNSLKTEDTAVYYCARDSPSISSYSIPYFSGMDVWGQGTLVTVSS
VL: DIQMTQSPSSLSASVGDRVTITCRASQGIRAWLNWYQQKPGKAPKLLIYAASSLQSGVPSRFSGSGSGTDFTLTISSLQPEDFATYYCHQYITHPPTFGQGTKVEIKR
notes: as for B1
B5: IDT10 anti-NOV1401 Fab (Fab, V domains shown)
VH: QVQLVQSGAEVKKPGASVKVSCKASGYTFTNYYVHWVRQAPGQGLEWMGWINPYSGNTNYAQKFQGRVTMTRDTSISTAYMELSRLRSEDTAVYYCARGASSIRMSYYLDVWGQGTLVTVSS
VL: DIQMTQSPSSLSASVGDRVTITCRASQSISNYLNWYQQKPGKAPKLLIYAASNLQSGVPSRFSGSGSGTDFTLTISSLQPEDFATYYCFQYTHSPATFGQGTKVEIKR
notes: as for B1
B6: IDT8 anti-NOV1401 Fab (Fab, V domains shown)
VH: QVQLVESGGGLVKPGGSLRLSCAASGFTFSSNAMHWVRQAPGKGLEWVGRIKSKTSGGTTDYAAPVKGRFTISRDDSKNTLYLQMNSLKTEDTAVYYCARDHYYYPFAYWGQGTLVTVSS
VL: DIQMTQSPSSLSASVGDRVTITCRASQSIRYNLAWYQQKPGKAPKLLIYAASSLQSGVPSRFSGSGSGTDFTLTISSLQPEDFATYYCHQYIAKPITFGQGTKVEIKR
notes: as for B1
B7: IDT4 anti-NOV1401 Fab (Fab, V domains shown)
VH: QVQLVESGGGLVKPGGSLRLSCAASGFTFSSAAVHWVRQAPGKGLEWVGRIKSKASGGTTDYAAPVKGRFTISRDDSKNTLYLQMNSLKTEDTAVYYCARDSPSISSYSIPYFSGMDVWGQGTLVTVSS
VL: DIQMTQSPSSLSASVGDRVTITCRASQGIRAWLNWYQQKPGKAPKLLIYAASSLQSGVPSRFSGSGSGTDFTLTISSLQPEDFATYYCHQYITHPPTFGQGTKVEIKR
notes: as for B1
B8: IDT1 anti-NOV1401 Fab (Fab, V domains shown)
VH: QVQLLESGGGLVQPGGSLRLSCAASGFTFSDYAMSWVRQAPGKGLEWVSVIDYSSSNTYYADSVKGRFTISRDNSKNTLYLQMNSLRAEDTAVYYCAREGYSYRSIRFDYWGQGTLVTVSS
VL: DIQMTQSPSSLSASVGDRVTITCRASQSISSNLNWYQQKPGKAPKLLIYAASNLQSGVPSRFSGSGSGTDFTLTISSLQPEDFATYYCLQFDHTPFTFGQGTKVEIKR
notes: The heavy chain entry is VH-CH1 (Fd); also called antidote
B9: IDT6 anti-NOV1401 Fab (Fab, V domains shown)
VH: QVQLVQSGAEVKKPGESLKISCKGSGYSFTNYWIGWVRQMPGKGLEWMGIIFPGVSYTKYSPSFQGQVTISADKSISTAYLQWSSLKASDTAMYYCARGSDQTLRGSRAMDYWGQGTLVTVSS
VL: QSALTQPASVSGSPGQSITISCTGTSSDVGISNYVSWYQQHPGKAPKLMIYEVSNRPSGVSNRFSGSKSGNTASLTISGLQAEDEADYYCQSYTSLNYVFGGGTKLTVLG
notes: Human Fab with a lambda light chain; The heavy chain entry is VH-CH1 (Fd); also called antidote
B10: anti-FXI/FXIa antibody NOV1401 (antibody, human IgG1, lambda, V domains shown)
VH: QVQLLESGGGLVQPGGSLRLSCAASGFTFSTAAMSWVRQAPGKGLEWVSGISGSGSSTYYADSVKGRFTISRDNSKNTLYLQMNSLRAEDTAVYYCARELSYLYSGYYFDYWGQGTLVTVSS
VL: QSVLTQPPSASGTPGQRVTISCSGSSSNIGSNDVSWYQQLPGTAPKLLIYKNYNRPSGVPDRFSGSKSGTSASLAISGLQSEDEADYYCSAWDQRQFDVVFGGGTKLTVLG

Experiments:
[1] = target: B10; test: cell-based or functional assay
[2] = target: B10; test: cell-based or functional assay; remark: listed apart in the source
[3] = target: B10; test: solution equilibrium titration (SET), constant Fab with NOV1401 titrated in solution, free Fab captured on biotinylated NOV1401, 1:1 fit; average of n=2
Procedure: (§1) After washing the plate again three times, 30 μl of detection reagent (LumiGLO Peroxidase Chemiluminescent Substrate, KPL#54-61-01) was added to each well. Electrochemiluminescence (ECL) signals were generated and detected immediately with a luminescence imager (SpectraMax M5, Molecular Devices, LLC).
(§2) Average ECL-signals were calculated from duplicate measurements within each assay. Data were baseline adjusted by subtracting the lowest value from all data points and plotted against the corresponding antigen concentration.

[4] = target: B10; test: SPR (ProteOn XPR36), NOV1401 amine-coupled on the chip, Fab as analyte 0.125-4 nM, Langmuir 1:1 fit, 25 C; average of n=2
Procedure: SPR binding experiments were performed on a ProteOn XPR36 instrument (Bio-Rad Laboratories, Inc.) in PBS/T buffer (50 mM phosphate, 150 mM NaCl, pH 7.4, 0.005% v/v Tween-20) at 25° C. […] Unreacted groups were blocked by injecting 1 M ethanolamine.
Blank surfaces were used for background corrections. There was no need to regenerate surfaces since the ProteOn protein interaction array system allows to run up to six binding experiments on an identical surface in parallel.
Data processing and analysis including kon, koff, and KD determination were performed with the ProteOn Manager™ software version 3.1.0.6. Sensorgrams were fitted by applying a Langmuir 1:1 binding model (Rmax set at global) and dissociation constants were calculated from kon and koff.

[5] = target: B10; test: Solution equilibrium titration (SET): constant Fab, NOV1401 titrated in solution, free Fab captured on biotinylated NOV1401, luminescence (RLU) read, 1:1 fit
Procedure: as §1, §2

[6] = target: B10; test: solution equilibrium titration (SET), constant Fab with NOV1401 titrated in solution, free Fab captured on biotinylated NOV1401, 1:1 fit; average of n=3
Procedure: as §1, §2

[7] = target: Human FXI in normal human plasma (human, UniProt P03951 19-625); test: cell-based or functional assay
Sequence of Human FXI in normal human plasma (P03951 19-625 C226S limits assumed): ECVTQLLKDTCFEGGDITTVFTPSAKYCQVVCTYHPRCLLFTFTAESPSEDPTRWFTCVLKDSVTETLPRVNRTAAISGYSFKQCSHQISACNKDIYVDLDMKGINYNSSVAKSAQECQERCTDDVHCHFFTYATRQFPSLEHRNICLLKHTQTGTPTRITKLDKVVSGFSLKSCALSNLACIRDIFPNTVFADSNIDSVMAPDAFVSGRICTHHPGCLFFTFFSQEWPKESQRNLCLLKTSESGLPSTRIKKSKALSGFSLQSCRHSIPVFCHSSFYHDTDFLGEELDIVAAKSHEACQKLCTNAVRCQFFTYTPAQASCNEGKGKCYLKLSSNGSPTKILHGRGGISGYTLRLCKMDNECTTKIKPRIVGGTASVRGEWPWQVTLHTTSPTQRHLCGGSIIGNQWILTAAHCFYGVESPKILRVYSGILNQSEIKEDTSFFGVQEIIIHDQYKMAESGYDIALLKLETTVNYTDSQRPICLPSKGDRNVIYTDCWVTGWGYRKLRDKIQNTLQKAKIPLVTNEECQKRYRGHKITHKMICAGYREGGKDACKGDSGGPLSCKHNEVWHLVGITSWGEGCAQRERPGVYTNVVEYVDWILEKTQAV

Row | Binder | percentage reversal of NOV1401 aPTT prolongation, NOV1401/anti NOV1401 ratio 1/1 (n/n) [1] | percentage reversal of NOV1401 aPTT prolongation, NOV1401/anti NOV1401 ratio 1/3 (n/n) [1] | percentage reversal of NOV1401 aPTT prolongation, NOV1401/anti NOV1401 ratio 1/10 (n/n) [1] | percentage reversal of the NOV1401 effect on thrombin generation (TGA), NOV1401/anti NOV1401 ratio 1/1 (n/n) [2] | percentage reversal of the NOV1401 effect on thrombin generation (TGA), NOV1401/anti NOV1401 ratio 1/3 (n/n) [2] | percentage reversal of the NOV1401 effect on thrombin generation (TGA), NOV1401/anti NOV1401 ratio 1/10 (n/n) [2] | Kd [3] | Kd [4] | Kd [5] | Kd [6] | IC50 of NOV1401 for reduction of peak thrombin in the TGA in human plasma [7]
1 | B1 | 9% | 35% | 58% | 31% | 47% | 67% | 0.1 nM | 0.24 nM | – | – | –
2 | B2 | 10% | 25% | 46% | 41% | 61% | 72% | 0.68 nM | 1.92 nM | – | – | –
3 | B3 | 16% | 37% | 54% | 50% | 66% | 71% | 0.96 nM | 0.33 nM | 0.16 nM | – | –
4 | B4 | 17% | 42% | 56% | 55% | 56% | 72% | – | 0.35 nM | – | 0.14 nM | –
5 | B5 | 12% | 25% | 40% | 37% | 45% | 57% | 1.19 nM | 5.97 nM | – | – | –
6 | B6 | 8% | 25% | 42% | 41% | 56% | 69% | – | 2.15 nM | 0.96 nM | 0.16 nM | –
7 | B7 | 10% | 27% | 39% | 33% | 53% | 60% | 0.97 nM | 0.31 nM | – | – | –
8 | B8 | 12% | 45% | 64% | 49% | 55% | 55% | 0.11 nM | 0.44 nM | – | – | –
9 | B9 | 9% | 22% | 38% | 18% | 41% | 37% | – | 10.1 nM | – | – | –
10 | B10 | – | – | – | – | – | – | – | – | – | – | 50 nM
